Reference: PMC4001850
“And” between values parts separate entries of the source, which are not always exact repeats. Identical values can stand only once. Like-named read-outs stand apart in the source and are kept apart here.

Columns and labels:
Aβ_(1-40) peptide [1] = assay: cross-linking
[2] = target: eAβPP_(19-624), His-Patch thioredoxin fusion of the entire ectodomain of AβPP695 (82-kDa) (human) (UniProt P05067); assay: SAXS
Aβ_(1-40) peptide [3] = assay: cross-linking; remark: listed apart in the source
Aβ_(1-42) peptide = assay: cross-linking

Substance	stoichiometry N (Aβ_(1-40) peptide [1])	stoichiometry N (Aβ molecules per eAβPP dimer) [2]	stoichiometry N (Aβ_(1-40) peptide [3])	stoichiometry N (Aβ_(1-42) peptide)
Aβ_(1-40) peptide	12 and 18	8	2	–
Aβ_(1-42) peptide	–	6	–	3
